From patent US20160272693A1 (ZEALAND PHARMA A S, published 2016)
*1 amine or outer side, *2 acyl side, *3 side chain or, on linkers, in order; H or OH if unused. Bridges are numbered along the chain shown (N, C = ends). [ ]: non-standard residue; d: D form. The star is where a group is joined. Pro(trans-4-NH2) = O=C([C@@H]1C[C@@H](N[*:3])CN1[*:1])[*:2]; C20 diacid = O=C(O)CCCCCCCCCCCCCCCCCCC(=O)*; γGlu = O=C(O)[C@H](CCC(=O)[*:2])N[*:1]; Hyp = O=C(O)[C@@H]1C[C@@H](O)CN1; NMeI = CC[C@H](C)[C@H](NC)C(=O)O; Aad = N[C@@H](CCCC(=O)O)C(=O)O; Orn = NCCC[C@H](N)C(=O)O; Sar = CNCC(=O)O

T1: human amylin receptor 3 (hAMYR3), hCTR2 co-expressed with human receptor activity modifying protein 3 (hRAMP3) (human, UniProt P30988 25-474; O60896 24-148)
T1 sequence (looked up) 1: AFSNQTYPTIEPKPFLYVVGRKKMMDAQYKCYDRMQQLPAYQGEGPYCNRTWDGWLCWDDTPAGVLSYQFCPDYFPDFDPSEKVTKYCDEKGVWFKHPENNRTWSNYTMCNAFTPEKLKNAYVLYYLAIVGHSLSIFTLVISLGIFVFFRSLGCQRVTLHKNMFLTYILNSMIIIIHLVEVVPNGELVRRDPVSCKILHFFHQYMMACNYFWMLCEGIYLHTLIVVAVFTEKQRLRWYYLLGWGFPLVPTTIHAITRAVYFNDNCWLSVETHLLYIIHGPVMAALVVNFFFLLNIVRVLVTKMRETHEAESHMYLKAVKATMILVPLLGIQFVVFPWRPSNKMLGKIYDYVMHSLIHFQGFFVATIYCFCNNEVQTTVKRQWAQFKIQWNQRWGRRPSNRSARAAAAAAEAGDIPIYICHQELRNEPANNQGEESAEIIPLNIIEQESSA
T1 sequence (looked up) 2: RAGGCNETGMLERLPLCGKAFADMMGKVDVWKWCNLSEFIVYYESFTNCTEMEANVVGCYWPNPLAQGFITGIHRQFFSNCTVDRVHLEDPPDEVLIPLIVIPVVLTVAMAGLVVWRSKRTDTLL

B1: [19CD]-isoGlu-R-C( )-GTAT-C( )-ATERLAHFLTRSSF-Gly(Me)-A-Ile(Me)-LSSTEVGSST-Apr-NH2 (Compd. 45) (peptide)
peptide: {C20 diacid}-[γGlu]RCGTATCATERLAHFLTRSSF[Sar]A[NMeI]LSSTEVGSST[Pro(trans-4-NH2)]-NH2
modifications: disulfide 3-8
SMILES: CC[C@H](C)[C@@H](C(=O)N[C@@H](CC(C)C)C(=O)N[C@@H](CO)C(=O)N[C@@H](CO)C(=O)N[C@H](C(=O)N[C@@H](CCC(=O)O)C(=O)N[C@H](C(=O)NCC(=O)N[C@@H](CO)C(=O)N[C@@H](CO)C(=O)N[C@H](C(=O)N1C[C@H](N)C[C@H]1C(N)=O)[C@@H](C)O)C(C)C)[C@@H](C)O)N(C)C(=O)[C@H](C)NC(=O)CN(C)C(=O)[C@H](Cc1ccccc1)NC(=O)[C@H](CO)NC(=O)[C@H](CO)NC(=O)[C@H](CCCNC(=N)N)NC(=O)[C@@H](NC(=O)[C@H](CC(C)C)NC(=O)[C@H](Cc1ccccc1)NC(=O)[C@H](Cc1c[nH]cn1)NC(=O)[C@H](C)NC(=O)[C@H](CC(C)C)NC(=O)[C@H](CCCNC(=N)N)NC(=O)[C@H](CCC(=O)O)NC(=O)[C@@H](NC(=O)[C@H](C)NC(=O)[C@@H]1CSSC[C@H](NC(=O)[C@H](CCCNC(=N)N)NC(=O)CC[C@H](NC(=O)CCCCCCCCCCCCCCCCCCC(=O)O)C(=O)O)C(=O)NCC(=O)N[C@@H]([C@@H](C)O)C(=O)N[C@@H](C)C(=O)N[C@@H]([C@@H](C)O)C(=O)N1)[C@@H](C)O)[C@@H](C)O
B2: [19CD]-isoGlu-R-C( )-GTAT-C( )-ATERLA-Aad-FLTRSSF-Gly(Me)-A-Ile(Me)-LSSTEVGSST-Hyp-NH2 (Compd. 43) (peptide)
peptide: {C20 diacid}-[γGlu]RCGTATCATERLA[Aad]FLTRSSF[Sar]A[NMeI]LSSTEVGSST[Hyp]-NH2
modifications: disulfide 3-8
SMILES: CC[C@H](C)[C@@H](C(=O)N[C@@H](CC(C)C)C(=O)N[C@@H](CO)C(=O)N[C@@H](CO)C(=O)N[C@H](C(=O)N[C@@H](CCC(=O)O)C(=O)N[C@H](C(=O)NCC(=O)N[C@@H](CO)C(=O)N[C@@H](CO)C(=O)N[C@H](C(=O)N1C[C@H](O)C[C@H]1C(N)=O)[C@@H](C)O)C(C)C)[C@@H](C)O)N(C)C(=O)[C@H](C)NC(=O)CN(C)C(=O)[C@H](Cc1ccccc1)NC(=O)[C@H](CO)NC(=O)[C@H](CO)NC(=O)[C@H](CCCNC(=N)N)NC(=O)[C@@H](NC(=O)[C@H](CC(C)C)NC(=O)[C@H](Cc1ccccc1)NC(=O)[C@H](CCCC(=O)O)NC(=O)[C@H](C)NC(=O)[C@H](CC(C)C)NC(=O)[C@H](CCCNC(=N)N)NC(=O)[C@H](CCC(=O)O)NC(=O)[C@@H](NC(=O)[C@H](C)NC(=O)[C@@H]1CSSC[C@H](NC(=O)[C@H](CCCNC(=N)N)NC(=O)CC[C@H](NC(=O)CCCCCCCCCCCCCCCCCCC(=O)O)C(=O)O)C(=O)NCC(=O)N[C@@H]([C@@H](C)O)C(=O)N[C@@H](C)C(=O)N[C@@H]([C@@H](C)O)C(=O)N1)[C@@H](C)O)[C@@H](C)O
B3: [19CD]-isoGlu-R-C( )-GTAT-C( )-ATERLA-Aad-FLTRSSF-Gly(Me)-A-Ile(Me)-LSSTEVGS-Orn-T-Hyp-NH2 (Compd. 44) (peptide)
peptide: {C20 diacid}-[γGlu]RCGTATCATERLA[Aad]FLTRSSF[Sar]A[NMeI]LSSTEVGS[Orn]T[Hyp]-NH2
modifications: disulfide 3-8
SMILES: CC[C@H](C)[C@@H](C(=O)N[C@@H](CC(C)C)C(=O)N[C@@H](CO)C(=O)N[C@@H](CO)C(=O)N[C@H](C(=O)N[C@@H](CCC(=O)O)C(=O)N[C@H](C(=O)NCC(=O)N[C@@H](CO)C(=O)N[C@@H](CCCN)C(=O)N[C@H](C(=O)N1C[C@H](O)C[C@H]1C(N)=O)[C@@H](C)O)C(C)C)[C@@H](C)O)N(C)C(=O)[C@H](C)NC(=O)CN(C)C(=O)[C@H](Cc1ccccc1)NC(=O)[C@H](CO)NC(=O)[C@H](CO)NC(=O)[C@H](CCCNC(=N)N)NC(=O)[C@@H](NC(=O)[C@H](CC(C)C)NC(=O)[C@H](Cc1ccccc1)NC(=O)[C@H](CCCC(=O)O)NC(=O)[C@H](C)NC(=O)[C@H](CC(C)C)NC(=O)[C@H](CCCNC(=N)N)NC(=O)[C@H](CCC(=O)O)NC(=O)[C@@H](NC(=O)[C@H](C)NC(=O)[C@@H]1CSSC[C@H](NC(=O)[C@H](CCCNC(=N)N)NC(=O)CC[C@H](NC(=O)CCCCCCCCCCCCCCCCCCC(=O)O)C(=O)O)C(=O)NCC(=O)N[C@@H]([C@@H](C)O)C(=O)N[C@@H](C)C(=O)N[C@@H]([C@@H](C)O)C(=O)N1)[C@@H](C)O)[C@@H](C)O

The binders below were run against T1, human amylin receptor 3 (hAMYR3), hCTR2 … (assay: cell-based or functional assay).

| hAMYR3 EC50 (nM); cAMP induction [nM] | Binder |
| --- | --- |
| 0.31 | B1 |
| 0.35 | B2 |
| 0.3 | B3 |
